According to IntAct's records for PubMed 15933719:

B1: Rab-interacting lysosomal protein (Homo sapiens), Q96NA2 (parent)
chain: MEPRRAAPGVPGWGSREAAGSASAAELVYHLAGALGTELQDLARRFGPEAAAGLVPLVVRALELLEQAAVGPAPDSLQVSAQPAEQELRRLREENERLRRELRAGPQEERALLRQLKEVTDRQRDELRAHNRDLRQRGQETEALQEQLQRLLLVNAELRHKLAAMQTQLRAAQDRERERQQPGEAATPQAKERARGQAGRPGHQHGQEPEWATAGAGAPGNPEDPAEAAQQLGRPSEAGQCRFSREEFEQILQERNELKAKVFLLKEELAYFQRELLTDHRVPGLLLEAMKVAVRKQRKKIKAKMLGTPEEAESSEDEAGPWILLSDDKGDHPPPPESKIQSFFGLWYRGKAESSEDETSSPAPSKLGGEEEAQPQSPAPDPPCSALHEHLCLGASAAPEA

Variants of: B1
Details: with rab7a_human RAB7A

Effect of a mutation on the interaction, disrupting interaction strength:
I251A
L306A
L252A
K304A
L258A
M305A
R255A
